Data on 6 sequences can be found in the supplement of paper PMC5998384.

Data set [1] concerns HeLa Kyoto. Description: melting temperature (median over replicates), in situ; higher = more thermally stable.
Data set [2] relates to HeLa Kyoto. Description: solubility change mitosis vs G1/S (difference of NP-40 vs SDS log2 ratios) (log2 ratio difference); higher = more soluble in mitosis.
Data set [3] concerns HeLa Kyoto. Description: thermal stability score vs G1/S (z-score of summed log2 fold changes over temperatures); higher = more thermally stable than in G1/S.
The subject of data set [4] is HeLa Kyoto. Description: solubility in G1/S (NP-40 vs SDS abundance) (log2 ratio); higher = more soluble. The settings on record: cell cycle stage: G1/S.
[5] abbreviates: cell cycle stage: early G1 (4.5 h after nocodazole release).
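For melting temperature (median over replicates), in situ in this document: HeLa Kyoto cells synchronized by double thymidine or nocodazole block, proteins quantified by TMT10plex mass spectrometry, three independent biological replicates.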
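For solubility change mitosis vs G1/S (difference of NP-40 vs SDS log2 ratios) in this document: synchronized HeLa Kyoto cells (double thymidine block for G1/S, nocodazole release for mitosis), protein amounts in NP-40 versus SDS lysates quantified by mass spectrometry, three biological replicates.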
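For solubility in G1/S (NP-40 vs SDS abundance) in this document: HeLa Kyoto cells arrested at G1/S by double thymidine block, proteins quantified by TMT10plex mass spectrometry in mild NP-40 versus SDS extracts, three biological replicates.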
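For thermal stability score vs G1/S (z-score of summed log2 fold changes over temperatures) in this document: synchronized HeLa Kyoto cells, proteins quantified by TMT10plex mass spectrometry, three biological replicates, mitosis taken 0.5 h after nocodazole release, G1/S directly after double thymidine block.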

For the sequence “MAAQRIRAANSNGLPRCKSEGTLIDLSEGFSETSFNDIKVPSPSALLVDNPTPFGNAKEVIAIKDYCPTNFTTLKFSKGDHLYVLDTSGGEWWYAHNTTEMGYIPSSYVQPLNYRNSTLSDSGMIDNLPDSPDEVAKELELLGGWTDDKKVPGRMYSNNPFWNGVQTNPFLNGNVPVMPSLDELNPKSTVDLLLFDAGTSSFTESSSATTNSTGNIFDELPVTNGLHAEPPVRRDNPFFRSKRSYSLSELSVLQAKSDAPTSSSFFTGLKSPAPEQFQSREDFRTAWLNHRKLARSCHDLDLLGQSPGWGQTQAVETNIVCKLDSSGGAVQLPDTSISIHVPEGHVAPGETQQISMKALLDPPLELNSDRSCSISPVLEVKLSNLEVKTSIILEMKVSAEIKNDLFSKSTVGLQCLRSDSKEGPYVSVPLNCSCGDTVQAQLHNLEPCMYVAVVAHGPSILYPSTVWDFINKKVTVGLYGPKHIHPSFKTVVTIFGHDCAPKTLLVSEVTRQAPNPAPVALQLWGKHQFVLSRPQDLKVCMFSNMTNYEVKASEQAKVVRGFQLKLGKVSRLIFPITSQNPNELSDFTLRVQVKDDQEAILTQFCVQTPQPPPKSAIKPSGQRRFLKKNEVGKIILSPFATTTKYPTFQDRPVSSLKFGKLLKTVVRQNKNHYLLEYKKGDGIALLSEERVRLRGQLWTKEWYIGYYQGRVGLVHTKNVLVVGRARPSLCSGPELSTSVLLEQILRPCKFLTYIYASVRTLLMENISSWRSFADALGYVNLPLTFFCRAELDSEPERVASVLEKLKEDCNNTENKERKSFQKELVMALLKMDCQGLVVRLIQDFVLLTTAVEVAQRWRELAEKLAKVSKQQMDAYESPHRDRNGVVDSEAMWKPAYDFLLTWSHQIGDSYRDVIQELHLGLDKMKNPITKRWKHLTGTLILVNSLDVLRAAAFSPADQDDFVI [SH3BP4]”, the results for the melting temperature with HeLa Kyoto [1] (cell cycle stage: G1/S) and in the data set with HeLa Kyoto [1] (cell cycle stage: mitosis) were 50.4 °C and 49.2 °C, respectively. Besides, in the data set on HeLa Kyoto [2], the “solubility change mitosis (log2)” value is -0.133. Moreover, the thermal stability score in the data set with HeLa Kyoto [3] (setting [5]) is 0.727; in the data set with HeLa Kyoto [3] (cell cycle stage: mitosis), 0.411. Moreover, the “solubility in G1/S (log2)” value with HeLa Kyoto [4] was -0.0978.
For the sequence “MAAQSAPKVVLKSTTKMSLNERFTNMLKNKQPTPVNIRASMQQQQQLASARNRRLAQQMENRPSVQAALKLKQSLKQRLGKSNIQARLGRPIGALARGAIGGRGLPIIQRGLPRGGLRGGRATRTLLRGGMSLRGQNLLRGGRAVAPRMGLRRGGVRGRGGPGRGGLGRGAMGRGGIGGRGRGMIGRGRGGFGGRGRGRGRGRGALARPVLTKEQLDNQLDAYMSKTKGHLDAELDAYMAQTDPETND [CHTOP]”, the values for the melting temperature in the data set with HeLa Kyoto [1] (cell cycle stage: G1/S) and with HeLa Kyoto [1] (cell cycle stage: mitosis) were 51 °C and 51.7 °C, respectively. Moreover, the “solubility change mitosis (log2)” value in the data set with HeLa Kyoto [2] turned out to be 0.761. Also, the thermal stability score was -2.91 in the data set with HeLa Kyoto [3] (setting [5]) and -0.126 in the data set on HeLa Kyoto [3] (cell cycle stage: mitosis). Besides, in the data set with HeLa Kyoto [4], the “solubility in G1/S (log2)” value was -0.246.
On to “MAAQSSLYNDDRNLLRIREKERRNQEAHQEKEAFPEKIPLFGEPYKTAKGDELSSRIQNMLGNYEEVKEFLSTKSHTHRLDASENRLGKPKYPLIPDKGSSIPSSSFHTSVHHQSIHTPASGPLSVGNISHNPKMAQPRTEPMPSLHAKSCGPPDSQHLTQDRLGQEGFGSSHHKKGDRRADGDHCASVTDSAPERELSPLISLPSPVPPLSPIHSNQQTLPRTQGSSKVHGSSNNSKGYCPAKSPKDLAVKVHDKETPQDSLVAPAQPPSQTFPPPSLPSKSVAMQQKPTAYVRPMDGQDQAPSESPELKPLPEDYRQQTFEKTDLKVPAKAKLTKLKMPSQSVEQTYSNEVHCVEEILKEMTHSWPPPLTAIHTPSTAEPSKFPFPTKDSQHVSSVTQNQKQYDTSSKTHSNSQQGTSSMLEDDLQLSDSEDSDSEQTPEKPPSSSAPPSAPQSLPEPVASAHSSSAESESTSDSDSSSDSESESSSSDSEENEPLETPAPEPEPPTTNKWQLDNWLTKVSQPAAPPEGPRSTEPPRRHPESKGSSDSATSQEHSESKDPPPKSSSKAPRAPPEAPHPGKRSCQKSPAQQEPPQRQTVGTKQPKKPVKASARAGSRTSLQGEREPGLLPYGSRDQTSKDKPKVKTKGRPRAAASNEPKPAVPPSSEKKKHKSSLPAPSKALSGPEPAKDNVEDRTPEHFALVPLTESQGPPHSGSGSRTSGCRQAVVVQEDSRKDRLPLPLRDTKLLSPLRDTPPPQSLMVKITLDLLSRIPQPPGKGSRQRKAEDKQPPAGKKHSSEKRSSDSSSKLAKKRKGEAERDCDNKKIRLEKEIKSQSSSSSSSHKESSKTKPSRPSSQSSKKEMLPPPPVSSSSQKPAKPALKRSRREADTCGQDPPKSASSTKSNHKDSSIPKQRRVEGKGSRSSSEHKGSSGDTANPFPVPSLPNGNSKPGKPQVKFDKQQADLHMREAKKMKQKAELMTDRVGKAFKYLEAVLSFIECGIATESESQSSKSAYSVYSETVDLIKFIMSLKSFSDATAPTQEKIFAVLCMRCQSILNMAMFRCKKDIAIKYSRTLNKHFESSSKVAQAPSPCIASTGTPSPLSPMPSPASSVGSQSSAGSVGSSGVAATISTPVTIQNMTSSYVTITSHVLTAFDLWEQAEALTRKNKEFFARLSTNVCTLALNSSLVDLVHYTRQGFQQLQELTKTP [AFF1]”, for which the results for the melting temperature in the data set with HeLa Kyoto [1] (cell cycle stage: G1/S) and in the data set with HeLa Kyoto [1] (cell cycle stage: mitosis) were 49.6 °C and 51.8 °C, respectively. Also, the “solubility change mitosis (log2)” value in the data set with HeLa Kyoto [2] was determined as 0.121. In addition, the thermal stability score with HeLa Kyoto [3] (setting [5]) is 0.0483; in the data set with HeLa Kyoto [3] (cell cycle stage: mitosis), -0.483. Besides, the “solubility in G1/S (log2)” value in the data set on HeLa Kyoto [4] is -0.222.
For “MAARVLRARGAAWAGGLLQRAAPCSLLPRLRTWTSSSNRSREDSWLKSLFVRKVDPRKDAHSNLLAKKETSNLYKLQFHNVKPECLEAYNKICQEVLPKIHEDKHYPCTLVGTWNTWYGEQDQAVHLWRYEGGYPALTEVMNKLRENKEFLEFRKARSDMLLSRKNQLLLEFSFWNEPVPRSGPNIYELRSYQLRPGTMIEWGNYWARAIRFRQDGNEAVGGFFSQIGQLYMVHHLWAYRDLQTREDIRNAAWHKHGWEELVYYTVPLIQEMESRIMIPLKTSPLQ [GBAS]”, the melting temperature with HeLa Kyoto [1] (cell cycle stage: G1/S) was 53.7 °C; with HeLa Kyoto [1] (cell cycle stage: mitosis), 53.3 °C. Moreover, in the data set with HeLa Kyoto [2], the “solubility change mitosis (log2)” value was -0.0463. Besides, the thermal stability score in the data set with HeLa Kyoto [3] (setting [5]) is -0.626; with HeLa Kyoto [3] (cell cycle stage: mitosis), -0.959. Also, in the data set with HeLa Kyoto [4], the “solubility in G1/S (log2)” value worked out at 0.0162.
For “MAASASAAAGEEDWVLPSEVEVLESIYLDELQVIKGNGRTSPWEIYITLHPATAEDQDSQYVCFTLVLQVPAEYPHEVPQISIRNPRGLSDEQIHTILQVLGHVAKAGLGTAMLYELIEKGKEILTDNNIPHGQCVICLYGFQEKEAFTKTPCYHYFHCHCLARYIQHMEQELKAQGQEQEQERQHATTKQKAVGVQCPVCREPLVYDLASLKAAPEPQQPMELYQPSAESLRQQEERKRLYQRQQERGGIIDLEAERNRYFISLQQPPAPAEPESAVDVSKGSQPPSTLAAELSTSPAVQSTLPPPLPVATQHICEKIPGTRSNQQRLGETQKAMLDPPKPSRGPWRQPERRHPKGGECHAPKGTRDTQELPPPEGPLKEPMDLKPEPHSQGVEGPPQEKGPGSWQGPPPRRTRDCVRWERSKGRTPGSSYPRLPRGQGAYRPGTRRESLGLESKDGS [RNF25]”, the melting temperature in the data set with HeLa Kyoto [1] (cell cycle stage: G1/S) and in the data set with HeLa Kyoto [1] (cell cycle stage: mitosis) was 52.7 °C each time. Moreover, in the data set on HeLa Kyoto [2], the “solubility change mitosis (log2)” value stood at 0.00785. Besides, the thermal stability score with HeLa Kyoto [3] (setting [5]) was -0.22; in the data set on HeLa Kyoto [3] (cell cycle stage: mitosis), -0.474. Besides, in the data set on HeLa Kyoto [4], the “solubility in G1/S (log2)” value stood at 0.537.
Regarding “MAASCVLLHTGQKMPLIGLGTWKSEPGQVKAAVKYALSVGYRHIDCAAIYGNEPEIGEALKEDVGPGKAVPREELFVTSKLWNTKHHPEDVEPALRKTLADLQLEYLDLYLMHWPYAFERGDNPFPKNADGTICYDSTHYKETWKALEALVAKGLVQALGLSNFNSRQIDDILSVASVRPAVLQVECHPYLAQNELIAHCQARGLEVTAYSPLGSSDRAWRDPDEPVLLEEPVVLALAEKYGRSPAQILLRWQVQRKVICIPKSITPSRILQNIKVFDFTFSPEEMKQLNALNKNWRYIVPMLTVDGKRVPRDAGHPLYPFNDPY [AKR1A1]”, the melting temperature in the data set on HeLa Kyoto [1] (cell cycle stage: G1/S) was 52.1 °C; in the data set on HeLa Kyoto [1] (cell cycle stage: mitosis), 52.7 °C. Moreover, in the data set on HeLa Kyoto [2], the “solubility change mitosis (log2)” value was -0.00767. In addition, the results for the thermal stability score in the data set with HeLa Kyoto [3] (setting [5]) and in the data set on HeLa Kyoto [3] (cell cycle stage: mitosis) were -0.223 and -1.09, respectively. The “solubility in G1/S (log2)” value with HeLa Kyoto [4] was determined as 0.534.
